Measurements reported in PMC3458539 (Nucleic Acids Research, 2012).

Columns and labels:
native MS = target: the molecule itself; assay: native MS
SEC = target: the molecule itself; assay: SEC

Protein | stoichiometry N (native MS) | stoichiometry N (SEC)
Vibrio cholerae Hfq (wild-type) (natural protein) MAKGQSLQDPFLNALRRERIPVSIYLVNGIKLQGQIESFDQFVILLKNTVNQMVYKHAISTVVPARPVSHHSGDRPASDRPAEKSEE | 6 | 
VcHfqK56A (proximal face RNA-binding mutant of Vibrio cholerae Hfq) (natural protein) MAKGQSLQDPFLNALRRERIPVSIYLVNGIKLQGQIESFDQFVILLKNTVNQMVYAHAISTVVPARPVSHHSGDRPASDRPAEKSEE |  | 6
VcHfqY25D (distal face RNA-binding mutant of Vibrio cholerae Hfq) (natural protein) MAKGQSLQDPFLNALRRERIPVSIDLVNGIKLQGQIESFDQFVILLKNTVNQMVYKHAISTVVPARPVSHHSGDRPASDRPAEKSEE |  | 6
